Data published in PMC9506113 (Pharmaceuticals, 2022).
Entries after “also recorded” stand apart in the source; their conditions may differ. Bridge positions count the residues as written; N and C are the ends. Square brackets hold non-standard residues; d marks the D form. Peptide text beside a SMILES is read from it. * marks the point of attachment. DOTA = O=C(O)CN1CCN(CC(=O)O)CCN(CC(=O)*)CCN(CC(=O)O)CC1; dPhe(4-NHCONH2) = NC(=O)Nc1ccc(C[C@@H](N)C(=O)O)cc1; Dihydroorotyl(S) = O=C1C[C@@H](C(=O)*)NC(=O)N1; Phe(4-Cl) = N[C@@H](Cc1ccc(Cl)cc1)C(=O)O; Phe(4-NH2) = Nc1ccc(C[C@H](N)C(=O)O)cc1

Columns and labels:
[1] = target: T1, SST2 (AR42J rat pancreatic tumour membranes) (Rattus norvegicus, UniProt P30680); test: Saturation binding assay on AR42J cell membranes; settings: AR42J cell membrane suspension 10 µg/well; radioligand 0.075-10 nM; one-site binding model; γ-counter; mean ± SEM
T1 construct: which is not the case for the AR42J model endogenously expressing SST2; host or cells: AR42J rat acinar pancreatic tumour cell line (membrane preparation)
T1 sequence (P30680 whole entry): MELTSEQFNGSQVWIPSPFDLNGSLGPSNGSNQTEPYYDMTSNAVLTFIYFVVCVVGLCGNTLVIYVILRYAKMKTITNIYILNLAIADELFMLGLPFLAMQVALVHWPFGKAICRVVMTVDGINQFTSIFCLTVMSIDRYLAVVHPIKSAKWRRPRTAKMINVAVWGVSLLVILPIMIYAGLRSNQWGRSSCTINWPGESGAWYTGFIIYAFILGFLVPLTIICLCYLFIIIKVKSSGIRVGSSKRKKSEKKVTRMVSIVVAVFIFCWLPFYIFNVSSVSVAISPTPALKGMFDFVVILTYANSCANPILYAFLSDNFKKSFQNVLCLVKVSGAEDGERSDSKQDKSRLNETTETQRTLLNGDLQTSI
Description: The SST2-expressing AR42J, acinar pancreatic tumour cell line derived from a transplantable tumour of a rat exocrine pancreas, was provided by ATCC (LGC Standards, Molsheim, France). Cells were cultured in RPMI 1640 medium (Dutscher, Bernolsheim, France), supplemented with 10% foetal calf serum (PAN-Biotech, Aidenbach, Germany), in a humidified atmosphere at 37 °C with 5% CO2. AR42J membranes were obtained by sonication in 50 mM Tris–HCl, pH 7.4, and centrifugation at 39,000× g for 10 min at 4 °C. The pellet was resuspended in the same buffer and centrifuged at 50,000 ×g for 10 min at 4 °C, and membranes in the resulting pellet were stored at −80 °C until further use.
Saturation binding assays were performed in vitro using AR42J cell membrane suspension (10 µg/well) incubated with increased concentrations (ranging between 0.075 and 10 nM) of the radioligand. […] Membrane-bound radio-peptide was counted in a γ-counter (COBRA 5003, Packard Instruments). The number of binding sites per cell was calculated and fitted to a one-site binding model in GraphPad Prism 8 to determine the dissociation constant (KD) and the number of binding sites (Bmax).

in vivo = settings: female, Swiss Nude-Foxn1nu, mouse, in vivo, iv, total radioactivity
Description: (§1) Healthy female Swiss Nude-Foxn1nu mice, of 7 weeks old, were obtained from Charles River (Ecully, France). The animals were housed and cared for according to French and European regulations on animal experimentation. All procedures with animals were submitted to the Institutional Animal Care and Use Committee of Oncodesign (CNREEA Agreement N°91). Animal physical well-being was monitored on a daily basis, and animal weight was measured at least twice a week. Tumours were induced by subcutaneously injecting 1 × 10^7 AR42J cells in 200 μL of RPMI 1640 into the right flank of the mice. In order to improve cell engraftment, AR42J tumour cell implantation was performed 72 h after whole-body irradiation with a γ-source (2 Gy 60Co; BioMep, Bretenières, France).
(§2) All test substances, including the mixture of radiolabelling buffer and 0.9% NaCl solution administered in the vehicle group, were intravenously injected into the caudal vein once a week for 4 consecutive weeks. The treatment schedule was determined by the growth kinetics of the AR42J tumour model. The day of randomisation was considered as day 0. […] Tumour growth delay was estimated by calculating the median time taken to reach a tumour volume of 850 mm^3. Animals were sacrificed once their tumour volume exceeded 1500 mm^3. The study was stopped on day 83 because only 1 and 3 animals remained with non-progressing tumours in groups 3 and 4, respectively.
(§3) Twelve mice (3 in each group) were sacrificed at 96 h after the fourth administration of the test substances to evaluate at the same time toxicity and haematological parameters, and radioactivity uptake in tumours and organs after 4 cycles. The remaining 50 mice (10 in both groups 1 and 4, and 15 in both groups 2 and 3) were either sacrificed for ethical reasons on the last day of the study, on day 83. At 96 h, following the last treatment administration, individual tumours and organs of interest were collected, blotted dry, weighted, fixed in formalin, and the amount of radioactivity present in each organ was quantified using a γ-counter. The radioactivity uptake in tumour and organs was determined and expressed as MBq/g of tissue as well as percentage injected dose/g of tissue (%ID/g).

[2] = test system: AR42J pancreatic tumour-bearing mice; test: In vivo biodistribution (radioactivity uptake in tumour and organs); settings: for Tumour radioactivity uptake / Femur radioactivity uptake / Spleen radioactivity uptake / Adrenals radioactivity uptake / Kidneys radioactivity uptake / Tail radioactivity uptake: 96 h after fourth injection, mean; for Tumour radioactivity uptake: SST2 expression High; for Femur radioactivity uptake / Spleen radioactivity uptake: SST2 expression Minimal; for Adrenals radioactivity uptake: SST2 expression Moderate; for Kidneys radioactivity uptake / Tail radioactivity uptake: SST2 expression None; for Correlation of radioactivity uptake with SST2 expression levels in organs: except in the kidneys
Description: as §1, §2, §3

[3] = test system: bone marrow, spleen, kidneys and other organs; test: Histopathology of normal organs (treatment-related microscopic observations); assay type: in vivo, Swiss Nude-Foxn1nu mice; settings: for Spleen, extramedullary haematopoiesis, mean score: vehicle 3.7; for Bone marrow, eosinophilic vacuolated cells, number of mice: vehicle 0
Description: Once fixed, tumours, spleen, bone marrow (femur), jejunum, colon, tail (injection site), and kidneys were processed to paraffin blocks and tissues slides produced for immunohistochemical analyses or stained with haematoxylin and eosin (H&E) or sirius red (collagen staining) for histopathological examination.
All the slides were evaluated by a board-certified veterinary pathologist (S.L.) using a light microscope (Olympus BX41). The pH2AX and SST2 signal intensities were scored using a semi-quantitative approach (H-score), by multiplying the signal intensity score (0, absent; 1, weak; 2, moderate; 3, strong) with the percentage of labelled cells. The H-score, which ranges from 0 to 300, gives the relative weight of staining in a given tumour sample. Regarding the histopathological examination, the number of mitoses was counted in the areas of tumours with the highest mitotic figures in 1 high-power field at the objective 40. The severity of fibrosis was evaluated on a classical toxicologic pathology scale ranging from 0 (absent) to 5 (severe).

SST2-positive NETs = settings: in vivo; cited from earlier work
kidney = settings: human, in vivo; cited from earlier work
human and rat SST2 = test system: human and rat SST2; set-up: method as in PMID 19910453; settings: ref [10]; cited from earlier work
[4] = 15 MBq, Tail uptake (injection site), 15 MBq x 4, 96 h after fourth injection, mean (SEM)
[5] = 15 MBq, Tumour uptake, 15 MBq, i.v. once a week x 4, 96 h after fourth injection, mean (SEM)
[6] = 15 MBq, compared with [^177Lu]Lu-DOTA-TATE at 15 or 30 MBq, 96 h

C[C@@H](O)[C@H](NC(=O)[C@@H]1CSSC[C@H](NC(=O)[C@@H](Cc2ccccc2)NC(=O)CN2CCN(CC(=O)O)CCN(CC(=O)O)CCN(CC(=O)O)CC2)C(=O)N[C@@H](Cc2ccc(O)cc2)C(=O)N[C@H](Cc2c[nH]c3ccccc23)C(=O)N[C@@H](CCCCN)C(=O)N[C@@H]([C@@H](C)O)C(=O)N1)C(=O)O [[^177Lu]Lu-DOTA-TATE, metal not drawn]
Kd [1]: 0.48 ± 0.2 nM | tissue uptake at 96 h (in vivo; 15 MBq, Adrenals uptake): 0.59 %ID/g | tissue uptake at 96 h (in vivo; 15 MBq, Femur uptake): 0.034 %ID/g | tissue uptake at 96 h (in vivo; 15 MBq, Kidneys uptake): 0.36 %ID/g | tissue uptake at 96 h (in vivo; 15 MBq, Spleen uptake): 0.018 %ID/g | tissue uptake at 96 h (in vivo; [4]): 0.055 %ID/g | tissue uptake at 96 h (in vivo; [5]): 5.6 %ID/g | tissue uptake at 96 h (in vivo; 30 MBq, Adrenals uptake): 0.6 %ID/g | tissue uptake at 96 h (in vivo; 30 MBq, Femur uptake): 0.022 %ID/g | tissue uptake at 96 h (in vivo; 30 MBq, Kidneys uptake): 0.51 %ID/g | tissue uptake at 96 h (in vivo; 30 MBq, Spleen uptake): 0.015 %ID/g | tissue uptake at 96 h (in vivo; 30 MBq, Tail uptake (injection site), 30 MBq x 4, 96 h after fourth injection, mean (SEM)): 0.042 %ID/g | tissue uptake at 96 h (in vivo; 30 MBq, Tumour uptake, 30 MBq, i.v. once a week x 4, 96 h after fourth injection, mean (SEM)): 5.8 %ID/g | Tumour radioactivity uptake ([2]; 15 MBq x 4): 1.0 MBq/g | Femur radioactivity uptake ([2]; 15 MBq x 4): 0.006 MBq/g | Spleen radioactivity uptake ([2]; 15 MBq x 4): 0.0032 MBq/g | Adrenals radioactivity uptake ([2]; 15 MBq x 4): 0.11 MBq/g | Kidneys radioactivity uptake ([2]; 15 MBq x 4): 0.066 MBq/g | Tail radioactivity uptake ([2]; 15 MBq x 4): 0.01 MBq/g | Correlation of radioactivity uptake with SST2 expression levels in organs ([2]; 15 MBq): overall well-correlated with SST2 expression levels in different organs, except in the kidneys | Tumour radioactivity uptake ([2]; 30 MBq x 4): 2.2 MBq/g | Femur radioactivity uptake ([2]; 30 MBq x 4): 0.008 MBq/g | Spleen radioactivity uptake ([2]; 30 MBq x 4): 0.006 MBq/g | Adrenals radioactivity uptake ([2]; 30 MBq x 4): 0.23 MBq/g | Kidneys radioactivity uptake ([2]; 30 MBq x 4): 0.20 MBq/g | Tail radioactivity uptake ([2]; 30 MBq x 4): 0.016 MBq/g | Correlation of radioactivity uptake with SST2 expression levels in organs ([2]; 30 MBq): overall well-correlated with SST2 expression levels in different organs, except in the kidneys | Spleen, extramedullary haematopoiesis, mean score ([3]; 30 MBq x 4, 96 h): 2.3 | Bone marrow, eosinophilic vacuolated cells, number of mice ([3]; 30 MBq x 4, end of study, 11 mice examined): one animal

C[C@@H](O)[C@@H]1NC(=O)[C@H](CCCCN)NC(=O)[C@@H](Cc2ccc(NC(N)=O)cc2)NC(=O)[C@H](Cc2ccc(NC(=O)[C@@H]3CC(=O)NC(=O)N3)cc2)NC(=O)[C@H](NC(=O)[C@H](Cc2ccc(Cl)cc2)NC(=O)CN2CCN(CC(=O)O)CCN(CC(=O)O)CCN(CC(=O)O)CC2)CSSC[C@@H](C(=O)N[C@H](Cc2ccc(O)cc2)C(N)=O)NC1=O [[^177Lu]Lu-satoreotide tetraxetan, metal not drawn] ({DOTA}-[Phe(4-Cl)][dC][Phe(4-NH2)](Dihydroorotyl(S))[dPhe(4-NHCONH2)]KTC[dY]-NH2; disulfide 2-7)
Kd [1]: 0.088 ± 0.01 nM | tissue uptake at 96 h (in vivo; 15 MBq, Adrenals uptake): 0.7 %ID/g | tissue uptake at 96 h (in vivo; 15 MBq, Femur uptake): 0.08 %ID/g | tissue uptake at 96 h (in vivo; 15 MBq, Kidneys uptake): 2.9 %ID/g | tissue uptake at 96 h (in vivo; 15 MBq, Spleen uptake): 0.072 %ID/g | tissue uptake at 96 h (in vivo; [4]): 0.082 %ID/g | tissue uptake at 96 h (in vivo; [5]): 20 %ID/g | Tumour radioactivity uptake ([2]; 15 MBq x 4): 3.5 MBq/g | Femur radioactivity uptake ([2]; 15 MBq x 4): 0.014 MBq/g | Spleen radioactivity uptake ([2]; 15 MBq x 4): 0.013 MBq/g | Adrenals radioactivity uptake ([2]; 15 MBq x 4): 0.12 MBq/g | Kidneys radioactivity uptake ([2]; 15 MBq x 4): 0.51 MBq/g | Tail radioactivity uptake ([2]; 15 MBq x 4): 0.015 MBq/g | Mean femur radioactivity uptake versus [^177Lu]Lu-DOTA-TATE [2, 6]: two times higher | Mean kidney radioactivity uptake versus [^177Lu]Lu-DOTA-TATE [2, 6]: up to eight times higher | Mean tumour radioactivity uptake versus [^177Lu]Lu-DOTA-TATE [2, 6]: up to three times higher; also recorded: approximately three times higher tumour uptake | Correlation of radioactivity uptake with SST2 expression levels in organs ([2]; 15 MBq): overall well-correlated with SST2 expression levels in different organs, except in the kidneys | Bone marrow, myeloid/erythroid ratio, mean score ([3]; 15 MBq x 4, 96 h, vehicle 2.3): 3.0 | Spleen, extramedullary haematopoiesis, mean score ([3]; 15 MBq x 4, 96 h): 2.3 | Bone marrow, eosinophilic vacuolated cells, number of mice ([3]; 15 MBq x 4, end of study, examined 11 (DOTATATE), 7 (satoreotide)): one animal | Bone marrow, myeloid/erythroid ratio, mean score ([3]; 15 MBq x 4, end of study, vehicle 1.2): 2.7 | Safety profile (SST2-positive NETs): manageable safety profile | Renal uptake and potential renal toxicity (kidney): limited

Pasireotide
Species difference human versus rat SST2 (human and rat SST2): species dissimilarities between human and rat SST2
